B1: HuXBR1-402(15) (mAb290) (antibody, human IgG1, V domains shown)
VH: QVQLQESGPGLVKPSETLSLTCTVSGFDISSYYMSWVRQPPGKGLEWIGAIGISGNAYYASWAKSRVTISRDTSKNQFSLKLSSVTAADTAVYYCARDHPTYGMDLWGPGTLVTVSS
VL: SYELTQPPSVSVAPGKTARITCEGNNIGSKAVHWYQQKPGQAPVLVIYDDDERPSGIPERFSGSNSGNTATLTISRVEAGDEADYYCQVWDSSAYVFGGGTKLTVLG
notes: Humanized IgG (human IgG1 constant regions, lambda)
B2: HuXBR1-402(3) (mAb288) (antibody, human IgG1, V domains shown)
VH: B1 VH with Q5R
VL: B1 VL with P8L, P14L, K16Q, V77A, E78Q
notes: as for B1
B3: HuXBR1-402(8) (mAb289) (antibody, human IgG1, V domains shown)
VH: B1 VH
VL: SYELTQPPSVSVSPGQTAIITCEGNNIGSKAVHWYQQKPGLSPVLVIYDDDERPSGIPERFSGSNSGNTATLTVSGTQDMDEADYYCQVWDSSAYVFGGGTKLTVLG
notes: as for B1
B4: ERR1-403 (mAb035) IgG with C-terminal sortase and Strep tags (antibody, V domains shown)
VH: QEQLKESGRGLVQPGGSLKLSCKASGFDFSGWYMTWVRQAPGKGLEWIGTIGTTKGRTYYASWVNGRFTISSNAQNTVDLQMNSLTAADRATYFCVRGSDYFDLWGPGTLVTISS
VL: SYELTQLPSVSVSLGQTARITCGGNSIGSKAVNWYQQKPGLAPGLLIYDDDERPSGVPARFSGSNSGDTATLTISGAQAGDEADYYCQLWDSSAGAYVFGGGTQLTVTG
notes: Human IgG1 constant regions
B5: ERR1-Top43 (mAb036) IgG with C-terminal sortase and Strep tags (antibody, V domains shown)
VH: QSLEESGGRLVTPGTPLTLTCTVSGFSLSSYWMSWVRQAPGKGLEWIGAIYGSGNTYYASWAKGRFTISKTSTTVDLKITSPTTEDTATYFCARDVHSTATDLWGPGTLVTISS
VL: B4 VL with S26N, D49N, A59D
notes: Human IgG1 constant regions
B6: XBR1-402 (mAb031) IgG with C-terminal sortase and Strep tags (antibody, V domains shown)
VH: QEQQKESGGGLFKPTDTLTLTCTASGFDISSYYMSWVRQAPGNGLEWIGAIGISGNAYYASWAKSRSTITRNTNLNTVTLKMTSLTAADTATYFCARDHPTYGMDLWGPGTLVTVSS
VL: SYELTQLPSVSVSLGQTARITCEGNNIGSKAVHWYQQKPGLAPGLLIYDDDERPSGVPDRFSGSNSGDTATLTISGAQAGDEADYYCQVWDSSAYVFGGGTQLTVTG
notes: Human IgH-gamma1 and IgL-lambda constant regions
B7: ERR1-324 (mAb034) IgG with C-terminal sortase and Strep tags (antibody, V domains shown)
VH: QSLEESGGGLVQPGESLTLTCTVSGFSLSRNGMTWVRQAPGKGLEWIGIITSSGDKYYATWAKGRFTISKTSSTTVDLKMTSLTTEDTATYFCARGTVSSDIWGPGTLVTISS
VL: ELVLTQTPSPVSAAVGGTVTINCQASQSVYGNNELAWYQQKPGQPPKLLIYRASILTSGVPSRFKGSGSGTQFTLTISNVQREDAATYYCLGGYVSQSYRAAFGGGTELEIL
notes: Human IgG1 constant regions, kappa light chain
B8: ERR1-306 (mAb033) IgG with C-terminal sortase and Strep tags (antibody, V domains shown)
VH: QEQLKESGGGLVQPGGSLKLSCKASGFDLSNYGVSWVRQAPGKGLEWIGYIDPTFDYTYYASWVNGRFSISRENTQNTVSLQINSLTPADTATYFCARWVYGVDDYGDGNWLDLWGQGTLVTISS
VL: QFVLTQSPSVSAALGASAKLTCTLSSAHKTYTIDWYQQQQGEAPRYLMELKSDGSYTKGTGVPDRFSGSSSGADRYLIIPSVQADDEADYYCGTDYSGGYVFGGGTQLTVTG
notes: Human IgG1 constant regions

Broadly, the Kd is a measure of binding affinity in units of concentration. Read a low Kd as higher affinity. A word on the koff: it is the first-order rate constant of dissociation. Read a high koff as a short-lived complex. For orientation: kon means the rate constant with which the complex forms.

Substitutions are numbered along the chain they refer to.

T2 sequence (Q01974 34-403): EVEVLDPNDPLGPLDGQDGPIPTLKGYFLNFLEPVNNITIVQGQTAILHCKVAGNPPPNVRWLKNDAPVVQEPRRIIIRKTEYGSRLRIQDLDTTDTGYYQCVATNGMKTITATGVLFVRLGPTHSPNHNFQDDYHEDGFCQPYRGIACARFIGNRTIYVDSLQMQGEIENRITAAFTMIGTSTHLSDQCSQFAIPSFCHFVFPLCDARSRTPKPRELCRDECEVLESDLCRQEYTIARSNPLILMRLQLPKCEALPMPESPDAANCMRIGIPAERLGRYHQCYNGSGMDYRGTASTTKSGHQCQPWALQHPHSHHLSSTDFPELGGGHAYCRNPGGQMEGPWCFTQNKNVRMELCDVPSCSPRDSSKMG

For the first experiment, the target named is T1, StrepII-tagged human ROR1 extracellular domain (human, UniProt Q01973 30-406).
T1 construct: extracellular domain; also called ROR1-strep; strep-tagged human ROR1
T1 sequence (Q01973 other isoform, or with tags, fused parts or gaps): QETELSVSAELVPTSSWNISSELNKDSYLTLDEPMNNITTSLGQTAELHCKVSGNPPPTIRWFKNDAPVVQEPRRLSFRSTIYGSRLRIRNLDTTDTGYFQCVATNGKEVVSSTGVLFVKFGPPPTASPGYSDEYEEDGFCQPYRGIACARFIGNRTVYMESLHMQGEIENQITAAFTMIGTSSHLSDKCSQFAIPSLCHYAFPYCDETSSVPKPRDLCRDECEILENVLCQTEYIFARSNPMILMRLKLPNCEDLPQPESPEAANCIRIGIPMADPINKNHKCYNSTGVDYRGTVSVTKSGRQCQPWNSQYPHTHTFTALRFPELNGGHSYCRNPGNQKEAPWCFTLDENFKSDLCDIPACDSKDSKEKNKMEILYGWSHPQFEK
The experiment can be described thus: SPR (Biacore T200); mAb captured by goat anti-human Fcγ IgG on CM5; ROR1-strep as analyte (Example 8). Here is the method: Affinity screening was then performed to select the best binders. Affinities were determined using a Biacore T200 instrument (GE Healthcare, Buckinghamshire, UK) and data was evaluated using Biacore Evaluation T200 V2.0 software. To capture mAbs, goat α-human Fc-gamma-specific IgG (Jackson ImmunoResearch, #109-005-098) was covalently immobilized on a CM5 chip (GE Healthcare, #BR-1005-30).
B1 came in with a Kd of 3.5 nM, a koff of 0.00394 s⁻¹ and a kon of 1.11e+06 M⁻¹ s⁻¹.

B2: the Kd turned out to be 3.2 nM, the koff stood at 0.00375 s⁻¹ and the kon turned out to be 1.19e+06 M⁻¹ s⁻¹.

With B3, the Kd is 2.1 nM, the koff turned out to be 0.00276 s⁻¹ and the kon is 1.29e+06 M⁻¹ s⁻¹.

The next experiment concerns the target T2, twin strep-tagged human ROR2 extracellular domain (human, UniProt Q01974 34-403).
T2 construct: extracellular domain; Expressed in HEK293T; also called ROR2-ECD-TwinStrep
Nature of the experiment: ELISA on coated twin-strep tagged human ROR2; anti-human Fcγ F(ab')2-HRP; absorbance 490 nm. Here is the method: Each well of a 96-well plate was coated with 100 μL of 2 μg/mL strep-tagged human ROR1 (from Example 5) in 0.1 M bicarbonate coating buffer (pH 9.6), and incubated for 12 h at 4° C. A second 96-well plate was likewise prepared with twin-strep tagged human ROR2 (from Example 5).
HRP-conjugated F(ab′)₂ anti-human FC-gamma (Jackson Immunoresearch, 109-036-008) was then added at a 1:20′000 dilution, 100 μl per well, and incubated for 1 h at 37° C. prior to detection using an Spark 10M plate reader (Tecan).
For orientation: In an ELISA, binding on a coated surface is turned into a signal by an enzyme label.
Turning to B4, the binding result is recorded as “no binding (tested: about 500 ng/ml)”.

Regarding B5, the binding result is on record as “no binding (tested: about 500 ng/ml)”.

Regarding B6, the binding result is given as “no binding (tested: about 500 ng/ml)”.

In the case of B7, the binding result is on record as “no binding (tested: about 500 ng/ml)”.

As for B8, the binding result was “no binding (tested: about 500 ng/ml)”.

In the next experiment the target is T1, StrepII-tagged human ROR1 extracellular …. The experiment can be described thus: SPR (Biacore T200), mAb captured by anti-human Fc-gamma IgG on CM5, ROR1-strep as analyte. (In general: Surface plasmon resonance follows binding to a sensor surface in real time, without labels.)
B1: the Kd is 3.55 nM.

In the case of B2, the Kd stood at 3.16 nM.

Consider B3, for which the Kd stood at 2.14 nM.

For the origin of these results see patent publication US20220153839A1 (NBE THERAPEUTICS, published 2022).
